Molecular target: T1, maltose binding protein (UniProt P0AEX9 27-396 = MBP)
T1 construct: also called MBP; carrier protein
Assay: ELISA on coated MBP

B1: P4-36 (antibody, V domains shown)
VH: EVQLVESGGGLVQPGRSLRLSCTDSGFTFSEYALSWVRQAPGKGLEWVGFIRSKAYGGTTEYAASVKGRFTISRDDSKSVAYLQMNSLKTEDTAVYFCTGPRPYYDSSGYYPYYFDYWGQGTLVTVSS
VL: QSALTQPRSVSGSPGQSVTISCTGSRSDVGGYDYVSWYQQHPGRVPKLMIYDVTKRPSGVPDRFSGSRSGNTASLTISGLQADDEADYYCSSFAGSSTYVVFGGGTTLTVL
notes: also called mAb P4-36; clone 3 antibody P4-36
- binding result: no binding
